Experimental findings from publication PMC6825195 are described below.

In experiment [1] the target is cytochrome c oxidase, regulatory competent, from bovine liver (bovine).
Experiment [2] concerns the target apoptotic protease-activating factor 1 (mouse (endogenous in Cytc knockout embryonic fibroblasts)) (UniProt O88879).
Chain of UniProt O88879 (O88879 whole entry): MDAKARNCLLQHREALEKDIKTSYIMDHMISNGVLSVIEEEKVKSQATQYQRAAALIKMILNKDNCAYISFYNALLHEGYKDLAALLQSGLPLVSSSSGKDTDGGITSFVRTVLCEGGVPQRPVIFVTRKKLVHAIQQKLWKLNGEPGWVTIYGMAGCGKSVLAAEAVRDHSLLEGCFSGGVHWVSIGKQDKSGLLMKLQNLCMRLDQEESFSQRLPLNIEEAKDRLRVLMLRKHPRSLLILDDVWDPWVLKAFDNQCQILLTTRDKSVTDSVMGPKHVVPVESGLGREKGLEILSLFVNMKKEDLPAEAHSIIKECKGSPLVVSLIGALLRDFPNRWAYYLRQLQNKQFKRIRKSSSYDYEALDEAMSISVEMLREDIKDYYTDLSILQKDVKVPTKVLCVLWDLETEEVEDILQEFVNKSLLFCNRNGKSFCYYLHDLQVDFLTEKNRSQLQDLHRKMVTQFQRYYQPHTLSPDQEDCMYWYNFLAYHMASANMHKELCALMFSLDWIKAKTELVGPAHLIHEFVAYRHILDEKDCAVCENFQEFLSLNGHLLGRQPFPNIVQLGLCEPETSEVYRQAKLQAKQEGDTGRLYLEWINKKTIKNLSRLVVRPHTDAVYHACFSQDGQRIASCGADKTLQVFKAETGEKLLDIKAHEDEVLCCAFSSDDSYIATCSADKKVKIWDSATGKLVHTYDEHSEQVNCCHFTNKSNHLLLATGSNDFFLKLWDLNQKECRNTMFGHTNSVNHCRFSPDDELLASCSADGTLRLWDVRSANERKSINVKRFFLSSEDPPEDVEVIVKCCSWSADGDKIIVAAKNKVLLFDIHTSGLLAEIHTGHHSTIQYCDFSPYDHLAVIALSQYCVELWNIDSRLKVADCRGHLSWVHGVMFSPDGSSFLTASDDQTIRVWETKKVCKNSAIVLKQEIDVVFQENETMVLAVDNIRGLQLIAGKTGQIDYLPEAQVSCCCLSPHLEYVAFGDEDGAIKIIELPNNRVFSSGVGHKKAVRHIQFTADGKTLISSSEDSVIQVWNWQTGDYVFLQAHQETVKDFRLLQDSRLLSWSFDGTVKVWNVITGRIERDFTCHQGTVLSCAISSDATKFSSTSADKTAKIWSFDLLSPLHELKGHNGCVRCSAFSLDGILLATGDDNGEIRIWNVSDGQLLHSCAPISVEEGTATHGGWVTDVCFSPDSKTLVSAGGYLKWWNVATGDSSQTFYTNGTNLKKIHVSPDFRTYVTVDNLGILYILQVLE

In the case of “wild-type cytochrome c (rodent somatic) (from UniProt P62897 1-105) (natural protein)”, the apparent Km of Cytc in the reaction with cow liver COX (150 nM; 0-20 µM Cytc; oxygen consumption, polarography, 25 °C) in experiment [1] came to 3 µM.

In the case of “T58I cytochrome c (from UniProt P62897 1-105) (natural protein)”, in experiment [1], the apparent Km of Cytc in the reaction with cow liver COX (150 nM; 0-20 µM Cytc; oxygen consumption, polarography, 25 °C) is 2.5 µM and the oxygen consumption rate (turnover) of purified cow liver COX with 0-20 µM Cytc, reduction compared to WT Cytc (% reduction compared to WT) was 25. In addition, the cell-free caspase-3 activity (DEVD-R110 cleavage) in cytosolic extract of Cytc knockout fibroblasts with 20 µg/mL Cytc, reduction compared to WT (% reduction compared to WT) in experiment [2] is 60.

“phosphomimetic T58E cytochrome c (from UniProt P62897 1-105) (natural protein)”: in experiment [1], the apparent Km of Cytc in the reaction with cow liver COX (150 nM; 0-20 µM Cytc; oxygen consumption, polarography, 25 °C) turned out to be 3 µM and the oxygen consumption rate (turnover) of purified cow liver COX with 0-20 µM Cytc, reduction compared to WT Cytc (% reduction compared to WT) is 45. The substance further returned a cell-free caspase-3 activity (DEVD-R110 cleavage) in cytosolic extract of Cytc knockout fibroblasts with 20 µg/mL Cytc, reduction compared to WT (% reduction compared to WT) in experiment [2] of 70.

With “T58A cytochrome c (from UniProt P62897 1-105) (natural protein)”, the apparent Km of Cytc in the reaction with cow liver COX (150 nM; 0-20 µM Cytc; oxygen consumption, polarography, 25 °C) in experiment [1] came to 4.5 µM. The cell-free caspase-3 activity (DEVD-R110 cleavage) in cytosolic extract of Cytc knockout fibroblasts with 20 µg/mL Cytc, reduction compared to WT (% reduction compared to WT) in experiment [2] came to 50.
